Measurements as given in US11015206B2, “Compositions and methods comprising sequences having hydroxyphenylpyruvate dioxygenase (HPPD) activity” (PIONEER HI-BRED INTERNATIONAL, INC., priority 2014, dated 2021).
Where a chain is given by its changes, count along the chain named. Names and notes keep the numbering of the source.

B1: SEQ ID NO:78: improved shuffled variant of maize HPPD (protein)
chain: MGPTPTATAAGAAVAAASAAEQAAFRLVGHRNFVRFNPRSDRFHTLAFHHVELWCADAASAAGRFSFALGAPLAARSDLSTGNSAHASLLLRSGSLSFLFTAPYAHGADAATAALPSFSAAAARRFAADHGLAVRAVALRVADAEDAFRASVAAGARPAFGPVDLGRGFRLAEVELYGDVVLRYVSYPDGAAGEPFLPGFEGVASPGAADYGLSRFDHIVGNVPELAPAAAYFAGFTGFHEFAEFTTEDVGTAESGLNSMALANNSENVLLPLNEPVHGTKRRSQIQTFLDHHGGPGVQHIALASDDVLRTLREMQARSAMGGFEFLPPPPSDYYDGVRRCAGDVLTEAQINECQELGVMVDRDDQGVLLQIFTKPVGDRPTFFLEIIQRIGCMEKDEKGQEYQKGGCGGFGKGNFGQLFKSIEDYEKSLEAKQAAAAATAQGS
modifications: Zea mays variant form created by artificial means.
B2: R6-9075: shuffled maize HPPD variant 9075, SEQ ID NO:79; 9070 with R316 changed to Q (protein)
chain: B1 chain with H44Q, A71V, F98L, F233M, A253T, P331L
modifications: Zea mays variant form created by artificial means.
notes: 9070 with R316 changed to Q
B3: R8-1973: Round 8, variant 1973 (SEQ ID NO:8), 26 amino acid substitutions relative to native maize HPPD (protein)
chain: MGPTPTATAAGAAVAAASAAEQAAFRLVGHRNFVRFNPRSDRFQTLAFHHVELWCADAASAAGRFSFALGVPLAARSDLSTGNSAHASLLLRSGSLSLLFTAPYAHGADAATAALPSFSAAAARRFAADHGLAVRAVALRVADAEDAFRASVAAGARPAFGPVDLGRGFRLAEVELYGDVVLRYVSYPDGAAGEPFLPGFEGVASPGAADLGLNRFDHIVGNVPELAPAAAYMAGFTGFHEFAEFTTEDVGTTESGLNSMALANNSENVLLPLNEPVHGTKRRSQIQTFLDHHGGPGVQHIALASDDVLRTLREMRARSAMGGFEFLPPPLSDYYDGVRKCAGDVLTEAQINECQELGVMVDRDDEGVLLQIFTKPVGDRPTFFLEIIQRIGCREKDEKGQEYQKGGCGGFGKGNFGQLFKSIEDYEKSLEKKRAAAAATAQGS
modifications: Zea mays variant form created by artificial means.
B4: G. max wt: wild-type HPPD enzyme from soybean (protein)
chain: MPMYTPSLSAPSSNHIQPSVTLPLYITTTKLNLKQQHHTTPMPIPMCNEIQAQAQAQAQPGFKLVGFKNFVRTNPKSDRFQVNRFHHIEFWCTDATNASRRFSWGLGMPIVAKSDLSTGNQIHASYLLRSGDLSFLFSAPYSPSLSAGSSAASSASIPSFDAATCLAFAAKHGFGVRAIALEVADAEAAFSASVAKGAEPASPPVLVDDRTGFAEVRLYGDVVLRYVSYKDAAPQAPHADPSRWFLPGFEAAASSSSFPELDYGIRRLDHAVGNVPELAPAVRYLKGFSGFHEFAEFTAEDVGTSESGLNSVVLANNSETVLLPLNEPVYGTKRKSQIETYLEHNEGAGVQHLALVTHDIFTTLREMRKRSFLGGFEFMPSPPPTYYANLHNRAADVLTVDQIKQCEELGILVDRDDQGTLLQIFTKPVGDRPTIFIEIIQRIGCMVEDEEGKVYQKGACGGFGKGNFSELFKSIEEYEKTLEAKRTA
modifications: Glycine max
notes: wild-type HPPD enzyme from soybean
B5: 206Q: single substitution P206Q in SEQ ID NO:2 (protein)
chain: B1 chain with H44Q, A71V, F98L, P206Q, F233M, A253T, Q316R, P331L
modifications: Zea mays variant form created by artificial means.
B6: 432K: single substitution A432K in SEQ ID NO:2 (protein)
chain: B3 chain with L211Y, N214S, K340R, E366Q, R394M, R434Q
modifications: Zea mays variant form created by artificial means.

Experiments:
Assay type in all cases: biochemical, Z. mays
[1] = test system: 4-hydroxyphenylpyruvate dioxygenase (HPPD); assay: OFF rate ratio: release of inhibitor from pre-formed enzyme-inhibitor complex; details: for OFF ratio (parameters with tembotrione): Table 5
Summary of the method: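 HPPD (7.2 μM) pre-incubated 1 h at RT with inhibitor (8 μM), then diluted into 25 mM Hepes pH 7, 2 mM ascorbate, 10 μM FeSO4, 100 μM HPP, 50 nM HGD; A320 followed 12 min. Ratio = steady-state rate with inhibitor over initial rate of inhibitor-free enzyme.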

[2] = test system: 4-hydroxyphenylpyruvate dioxygenase (HPPD); assay: HPPD activity coupled assay with HGD; substrate saturation kinetic parameters (kcat, KM)
Method: Wild type and shuffled variant genes were cloned into pVER7062, a modified version of pET24a(+)(Novagen), which places six histidine residues at the N-terminus of the expressed protein. Vectors were electroporated into E. coli host strain BL21(DE3). Cells were grown at 30 C in rich medium such as 2×YT containing the selection antibiotic, kanamycin. At a density of about 0.6 OD600, IPTG was added to 0.2 mM, the temperature was reduced to 16 C and growth continued for another 24 hrs. Cells were harvested by centrifugation and stored at −80 C. Cell pellets were lysed in BPER (Pierce) protein extraction reagent containing 0.2 mg/ml lysozyme, 1 mM dithiothreitol, protease inhibitor cocktail (Sigma, bacterial cocktail) and endonuclease. Insoluble cellular debris was removed by centrifugation. HPPD protein was purified from the soluble protein solution by affinity chromatography on the nickel form of nitrilotriacetic acid (Ni-NTA) resin (Qiagen). Protein concentrations were determined by the Bradford method, as supplied by Bio-Rad.
HPPD catalyzes the conversion of 4-hydroxyphenylpyruvate (HPP) to homogentisate (FIG. 17). […] However, the product of the ensuing reaction in tyrosine metabolism, maleylacetoacetate, absorbs strongly at 320 nm. Furthermore, the enzyme catalyzing that reaction is also a dioxygenase having similar mechanism and buffer requirements as HPPD, making homogentisate dioxygenase (HGD) an ideal partner in a coupled assay, as shown.
The HDG gene from Pseudomonas aeruginosa (Amaya (2004) Arch Biochem Biophys 421, 135-142) was cloned into pVER7062 and electroporated into E. coli strain BL21(DE3). The enzyme was produced by methods similar to those described for HPPD. The purified enzyme has a KM for homogentisate of 23 μM and a kcat of 100/sec, properties highly suited for instantly converting the homogentisate produced by HPPD to maleylacetoacetate.
HPPD activity was measured by placing an aliquot (e.g., 6 μl) of the substrate HPP at 50-fold the desired final concentration into the wells of a low UV-absorbing assay plate. Reactions were started by adding a mixture (e.g., 294 μl) containing 25 mM Hepes, pH 7, 2 mM ascorbate, 10 μM FeSO4, 1 to 100 μM HPP, 50 nM HGD and 5 to 240 nM HPPD. Absorbance at 320 nm was monitored continuously in a plate-reading spectrophotometer (Spectramax, Molecular Devices).
The catalytic performance of wild-type HPPD and variants generated by shuffling was assessed by determining the substrate saturation kinetic parameters. The Michaelis-Menten kinetics protocol of the Spectramax software was customized for HPP concentrations ranging from 3.33 μM to 100 μM. Reaction rates were measured as described above for each concentration of HPP. The software returns values of KM and Vmax using the Lineweaver-Burke transformation of the Michaelis-Menten equation.

[3] = test system: 4-hydroxyphenylpyruvate dioxygenase (HPPD); assay: Insensitivity parameter (ON × OFF) and trait fitness (ON × OFF × kcat/KM or × kcat); details: for Insensitivity ON × OFF, Fold vs wt: vs maize wild type; for ON × OFF × kcat, Value / ON × OFF × kcat, Fold vs wt / ON × OFF, fold vs wt / ON × OFF (parameters with tembotrione): Table 5, tembotrione; for ON × OFF × kcat, Fold vs wt / ON × OFF, fold vs wt: fold vs maize wild type HPPD; for ON × OFF (parameters with tembotrione): insensitivity parameter
Summary of the method: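 Calculated, not measured directly: ON rate ratio × OFF rate ratio gives an insensitivity parameter serving as a KD surrogate.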

[4] = test system: 4-hydroxyphenylpyruvate dioxygenase (HPPD); assay: ON rate ratio: HPPD reaction rate with vs without inhibitor in the 70 to 90 second interval; details: for ON rate ratio: mesotrione; for ON ratio (parameters with tembotrione): Table 5
Summary of the method: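 Time courses of HPPD reactions, 60 or 120 nM enzyme with 100 μM HPP substrate, run with and without 4 μM inhibitor (e.g. mesotrione, tembotrione). Value is the rate with inhibitor over rate without, taken over 70–90 s; higher ratio reflects slower kON.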

[5] = test system: 4-hydroxyphenylpyruvate dioxygenase (HPPD); assay: Estimate of kcat from initial rate at saturating hydroxyphenylpyruvate without inhibitor (ON rate ratio assay); details: Table 5; single substitutions in Round 7 variant 9070 (SEQ ID NO:2); estimate from initial rate at saturating hydroxyphenylpyruvate without inhibitor
Summary of the method: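 Reactions used 60 or 120 nM HPPD and saturating 100 μM hydroxyphenylpyruvate without inhibitor. kcat was estimated from the initial rate at the known enzyme concentration.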

[6] = Table 2, E. coli purified proteins
[7] = DKN (diketonitrile form of isoxaflutole)
[8] = DKN (isoxaflutole diketonitrile)
[9] = Table 6, single substitutions in SEQ ID NO:2

| Molecule | OFF rate ratio ([1]; mesotrione) | Fitness Fold vs Zm wt ([3]; mesotrione) | Insensitivity parameter, ON × OFF ([3]; mesotrione, Table 2) | Insensitivity ON × OFF, Fold vs wt ([3]; mesotrione) | Km [2, 6] [µM] | kcat [2, 6] [s⁻¹] | ON rate ratio [4] | kcat [5] [s⁻¹] | OFF ratio (parameters with tembotrione) [1] | Insensitivity parameter, ON × OFF [3, 7] | ON × OFF × kcat/km fold vs Round 7, variant 9070 [3, 8] | Insensitivity parameter, ON × OFF ([3]; Mesotrione, Table 6) | ON × OFF × kcat/km fold vs Round 7, variant 9070 ([3]; Sulco (sulcotrione)) | Insensitivity parameter, ON × OFF ([3]; Sulcotrione) | ON × OFF × kcat, Value [3] | ON × OFF × kcat, Fold vs wt [3] | ON × OFF, fold vs wt [3] | ON × OFF (parameters with tembotrione) [3] | Insensitivity parameter, ON × OFF ([3]; Tembotrione) | ON × OFF × kcat/km fold vs Round 7, variant 9070 ([3]; Topra (topramezone)) | other results |
| --- | --- | --- | --- | --- | --- | --- | --- | --- | --- | --- | --- | --- | --- | --- | --- | --- | --- | --- | --- | --- | --- |
| B1 | – | – | – | – | – | – | – | – | – | – | – | – | – | – | – | – | – | – | – | – | time span to reach the steady state (dissociation from inhibitor) ([1]; mesotrione, enzyme 240 nM): 80 s; kcat ([2]; text b374): about 220 min^−1 |
| B2 | 0.68 | 6.4 | 0.46 | 7.6 | 4 | 1.9 | 0.68 | – | – | – | – | – | – | – | – | – | – | – | – | – | – |
| B3 | 1.00 | 12.2 | 0.73 | 11.9 | 2 | 1.18 | 0.73 | – | – | – | – | – | – | – | – | – | – | – | – | – | – |
| B4 | 0.007 | 0.02 | 0.0014 | 0.023 | 3 | 1.67 | 0.20 | – | – | – | – | – | – | – | – | – | – | – | – | – | – |
| B5 | – | – | – | – | – | – | – | 0.59 | 0.21 | 0.26 | 1.2 | 0.46 | 1.0 | 0.53 | 5.57 | 5.20 | 30.8 | 0.16 | 0.19 | 1.1 | Insensitivity parameter, ON × OFF ([3]; Topramezon): 0.27; ON × OFF × kcat/km fold vs Round 7, variant 9070 ([3]; meso (mesotrione)): 1.1; ON × OFF × kcat/km fold vs Round 7, variant 9070 ([3]; tembo (tembotrione)): 1.4; Km ([2]; Table 6): 2.63 µM; kcat [2, 9]: 1.11 s⁻¹; ON ratio (parameters with tembotrione) [4]: 0.74 |
| B6 | – | – | – | – | – | – | – | 0.525 | 0.17 | 0.26 | 1.6 | 0.52 | 1.5 | 0.59 | 4.13 | 3.86 | 25.7 | 0.13 | 0.21 | 1.5 | Insensitivity parameter, ON × OFF ([3]; Topramezon): 0.29; ON × OFF × kcat/km fold vs Round 7, variant 9070 ([3]; meso (mesotrione)): 1.6; ON × OFF × kcat/km fold vs Round 7, variant 9070 ([3]; tembo (tembotrione)): 1.4; Km ([2]; Table 6): 2.08 µM; kcat [2, 9]: 1.12 s⁻¹; ON ratio (parameters with tembotrione) [4]: 0.76 |
